Target: c-Kit expressed on the cell surface of M-07e cells (human) (UniProt P10721)
Experiment: flow cytometry on M-07e cells

Sequence of c-Kit expressed on the cell surface of M-07e cells (human) (P10721 26-976): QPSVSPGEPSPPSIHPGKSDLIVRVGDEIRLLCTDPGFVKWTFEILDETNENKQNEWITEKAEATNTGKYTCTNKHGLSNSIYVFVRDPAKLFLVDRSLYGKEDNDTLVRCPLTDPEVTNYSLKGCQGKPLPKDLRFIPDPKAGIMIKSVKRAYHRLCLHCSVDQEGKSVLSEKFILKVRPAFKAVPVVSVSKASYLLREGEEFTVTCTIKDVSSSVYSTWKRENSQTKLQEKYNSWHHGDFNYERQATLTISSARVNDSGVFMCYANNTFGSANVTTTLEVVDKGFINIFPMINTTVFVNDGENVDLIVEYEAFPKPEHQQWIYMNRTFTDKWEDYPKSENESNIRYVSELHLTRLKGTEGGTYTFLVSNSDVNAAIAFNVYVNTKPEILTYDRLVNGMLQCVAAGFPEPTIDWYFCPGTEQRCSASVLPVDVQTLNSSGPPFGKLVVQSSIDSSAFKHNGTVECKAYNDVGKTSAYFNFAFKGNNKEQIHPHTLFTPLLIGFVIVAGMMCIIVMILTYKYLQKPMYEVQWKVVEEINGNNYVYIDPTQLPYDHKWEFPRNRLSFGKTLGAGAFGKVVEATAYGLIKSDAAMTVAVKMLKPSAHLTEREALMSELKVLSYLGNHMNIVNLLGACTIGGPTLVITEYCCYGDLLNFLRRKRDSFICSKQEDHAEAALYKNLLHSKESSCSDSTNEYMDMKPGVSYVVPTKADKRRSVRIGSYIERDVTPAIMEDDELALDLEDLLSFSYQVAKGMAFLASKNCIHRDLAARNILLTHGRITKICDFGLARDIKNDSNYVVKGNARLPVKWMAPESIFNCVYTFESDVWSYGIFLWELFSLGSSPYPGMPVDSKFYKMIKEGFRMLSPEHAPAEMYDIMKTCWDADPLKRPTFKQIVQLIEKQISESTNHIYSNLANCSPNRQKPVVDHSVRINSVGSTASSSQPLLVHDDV

A Measuring Fluorescent Intensity (MFI) of 85 MFI and a Percent Positive for c-Kit on M-07e cells of 2.3% were found for hIgG1 control (antibody) in this work.

From patent US20260070975A1
